Assay results from US20260062491A1.

Tests used:
[1] = biological target: CD40 on peripheral blood B cells (CD3- CD19+ cells of PBMC) (UniProt P25942); assay: flow cytometry: PBMC stained with the secondary anti-His tag antibody alone (negative control); gate lymphoid, single, viable, CD3- CD19+ cells [panel B]
[2] = biological target: CD40 on peripheral blood B cells (CD3- CD19+ cells of PBMC) (UniProt P25942); assay: flow cytometry: PBMC incubated with 0.043 uM His-tagged CD40L construct, secondary anti-His tag antibody; gate lymphoid, single, viable, CD3- CD19+ cells [panel B]

Control (antibody)
MFI [1]: 99

WT (ligand)
MFI [2]: 1300

B1: EPC10 (ligand, not shown: small tags and cut ends)
chain: GDQNPQIAAHVISEASSTTTSVLQWAEKGYYTMSNNLVTLENGKQLTVKRQGLYYIYAQVTFCSNREASSQAPFIASLCLKSPGRFERILLRAANTHSSAKHCGQQSIHLGGVFELQPGASVFVNVTDPSQVSHGTGFTSFGLFKL
MFI [2]: 1180

B2: EPC7 (ligand, not shown: small tags and cut ends)
chain: GDQNPQIAAHVISEASSKTTSVLQWAEKGYYTMSNNLVTLENGKQLTVKRQGLYYIYAQVTFCSNREASGQAPFIASLCLKSPGRFERILLRAANTHSSAKRCGQQSIHLGGVFELQPGASVFVNVTDPSQVSHGTGFTSFGLFKL
MFI [2]: 1360
